Experimental findings from paper PMC7611853 (Nature cell biology, 2021) are described below.

Data set [1] concerns the molecule itself. The data set is described as follows: negative-stain TEM, circular dichroism and amyloid-dye. On the technique in general: Circular dichroism is widely used to follow secondary structure.
The data set “centrifugation” deals with the molecule itself. The data set is described as follows: centrifugation.

B1: Cdc19^WT (wild-type pyruvate kinase Cdc19, strep-tagged, recombinant) (enzyme, S. cerevisiae, UniProt P00549 1-500, looked up)
chain: MSRLERLTSLNVVAGSDLRRTSIIGTIGPKTNNPETLVALRKAGLNIVRMNFSHGSYEYHKSVIDNARKSEELYPGRPLAIALDTKGPEIRTGTTTNDVDYPIPPNHEMIFTTDDKYAKACDDKIMYVDYKNITKVISAGRIIYVDDGVLSFQVLEVVDDKTLKVKALNAGKICSHKGVNLPGTDVDLPALSEKDKEDLRFGVKNGVHMVFASFIRTANDVLTIREVLGEQGKDVKIIVKIENQQGVNNFDEILKVTDGVMVARGDLGIEIPAPEVLAVQKKLIAKSNLAGKPVICATQMLESMTYNPRPTRAEVSDVGNAILDGADCVMLSGETAKGNYPINAVTTMAETAVIAEQAIAYLPNYDDMRNCTPKPTSTTETVAASAVAAVFEQKAKAIIVLSTSGTTPRLVSKYRPNCPIILVTRCPRAARFSHLYRGVFPFVFEKEPVSDWTDDVEARINFGIEKAKEFGILKKGDTYVSIQGFKAGAGHSNTLQVSTV
B1: the binding result in data set [1] is “binds”.

B2: Cdc19^ΔFBP (Cdc19 point-mutant T403E unable to bind FBP, strep-tagged, recombinant) (enzyme, S. cerevisiae, UniProt P00549 1-500, looked up)
chain: MSRLERLTSLNVVAGSDLRRTSIIGTIGPKTNNPETLVALRKAGLNIVRMNFSHGSYEYHKSVIDNARKSEELYPGRPLAIALDTKGPEIRTGTTTNDVDYPIPPNHEMIFTTDDKYAKACDDKIMYVDYKNITKVISAGRIIYVDDGVLSFQVLEVVDDKTLKVKALNAGKICSHKGVNLPGTDVDLPALSEKDKEDLRFGVKNGVHMVFASFIRTANDVLTIREVLGEQGKDVKIIVKIENQQGVNNFDEILKVTDGVMVARGDLGIEIPAPEVLAVQKKLIAKSNLAGKPVICATQMLESMTYNPRPTRAEVSDVGNAILDGADCVMLSGETAKGNYPINAVTTMAETAVIAEQAIAYLPNYDDMRNCTPKPTSTTETVAASAVAAVFEQKAKAIIVLSESGTTPRLVSKYRPNCPIILVTRCPRAARFSHLYRGVFPFVFEKEPVSDWTDDVEARINFGIEKAKEFGILKKGDTYVSIQGFKAGAGHSNTLQVSTV
As for B2, the binding result in “centrifugation” was “binds”.
